Assay results: IntAct's records for PubMed 25066297

B1: Probable thioesterase PNKD (Homo sapiens), Q8N490 (parent)
chain: MAAVVAATALKGRGARNARVLRGILAGATANKASHNRTRALQSHSSPEGKEEPEPLSPELEYIPRKRGKNPMKAVGLAWYSLYTRTWLGYLFYRQQLRRARNRYPKGHSKTQPRLFNGVKVLPIPVLSDNYSYLIIDTQAQLAVAVDPSDPRAVQASIEKEGVTLVAILCTHKHWDHSGGNRDLSRRHRDCRVYGSPQDGIPYLTHPLCHQDVVSVGRLQIRALATPGHTQGHLVYLLDGEPYKGPSCLFSGDLLFLSGCGRTFEGNAETMLSSLDTVLGLGDDTLLWPGHEYAEENLGFAGVVEPENLARERKMQWVQRQRLERKGTCPSTLGEERSYNPFLRTHCLALQEALGPGPGPTGDDDYSRAQLLEELRRLKDMHKSK

Variants of: B1
Details: with mk03_human MAPK3, P27361
Chain of mk03_human MAPK3, P27361 (P27361 whole entry): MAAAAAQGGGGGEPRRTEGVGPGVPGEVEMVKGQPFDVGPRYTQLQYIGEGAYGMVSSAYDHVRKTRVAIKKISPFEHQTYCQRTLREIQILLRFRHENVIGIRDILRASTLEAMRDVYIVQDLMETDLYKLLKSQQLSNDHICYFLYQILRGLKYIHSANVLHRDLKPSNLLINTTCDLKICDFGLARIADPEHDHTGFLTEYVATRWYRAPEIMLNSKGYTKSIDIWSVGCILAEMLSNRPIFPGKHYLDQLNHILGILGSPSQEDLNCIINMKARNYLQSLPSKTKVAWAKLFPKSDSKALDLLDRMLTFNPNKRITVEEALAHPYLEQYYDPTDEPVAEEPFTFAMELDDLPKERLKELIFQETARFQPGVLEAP

Row | effect of a mutation on the interaction | Variant
1 | disrupting interaction | MAAVVAATALKGRGARNARVLRGILAGATANKASHNRTRALQSHSAPEGKEEPEPLSPELEYIPRKRGKNPMKAVGLAWYSLYTRTWLGYLFYRQQLRRARNRYPKGHSKTQPRLFNGVKVLPIPVLSDNYSYLIIDTQAQLAVAVDPSDPRAVQASIEKEGVTLVAILCTHKHWDHSGGNRDLSRRHRDCRVYGSPQDGIPYLTHPLCHQDVVSVGRLQIRALATPGHTQGHLVYLLDGEPYKGPSCLFSGDLLFLSGCGRTFEGNAETMLSSLDTVLGLGDDTLLWPGHEYAEENLGFAGVVEPENLARERKMQWVQRQRLERKGTCPSTLGEERSYNPFLRTHCLALQEALGPGPGPTGDDDYSRAQLLEELRRLKDMHKSK [S46A]
